{
  "source": "the nanobody polyreactivity screen of Harvey et al. (2022)",
  "data": [
    {"assay": "yeast display, Sf9 membrane polyspecificity reagent, FACS + sequencing; frameworks hold sequencing errors", "procedure,_shortened": "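In a synthetic yeast display library (Saccharomyces cerevisiae BJ5465), nanobody expression was induced with galactose for 36–48 hours. FACS gates were set low and high (top ~1%) using anti-HA fluorescence for expression and streptavidin fluorescence for binding of the Sf9 membrane reagent. Each polyreactivity label is drawn from the gate of origin.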", "values": [
      {"sequence": "QVQLVESGGGLVQAGGSLSLSCAAYGRTSPIYAMGWYRQAPGKERELVASITRCTRTNYADSVKGRFTISRDNAKNTVYLQMNSLKPEDTAVYYCAAVSYSYSLNAYDYWGQGTQVTVSS", "polyreactivity (PSR sort gate)": "low polyreactivity"},
      {"sequence": "QVQLVESGGGLVQAGGSLRLSCAASGITFPINAMGWYRQAPGKEREFVATISFSGASTYYADSVKGRFTISRDNAKNTVYLQMNSLKPEDTAVYYCAADLSLSTGGRAFPTYGYWGQGTQVTVSS", "polyreactivity (PSR sort gate)": "high polyreactivity"},
      {"sequence": "QVQLVESGGGLVQAGGSLRLSCAASGSIFATYAMGWYRQAPGKERELVAAITASDGSTNYADSVKGRFTLSRDNAQNTVYLQMNSLKPEDTAVYYCATDAPYRTDSDSGFDAGYDYWGQGTQVTLSS", "polyreactivity (PSR sort gate)": "low polyreactivity"},
      {"sequence": "QVQLVESVGGLVQAGGSLRLSCSDSGSTFKSYAMGWYRQSPGKERELVAAITHRGSTYYADSVKGRFTISRDNAKNTVYVQMNSLKPEDTAVYYCNVRRIGNGRRVDYCGQGTQVTVSS", "polyreactivity (PSR sort gate)": "high polyreactivity"},
      {"sequence": "QVQLVESGGGLVQAGGSLRLSCAASGLTFVYYAMGWYRQAPGKERELVATISWDGGSTYYADSVKGRFTISRDNAKNTVYLQLNRLKPEDTAVYYCNKYVFDRYIYETEYDYWGQGTQVTVSS", "polyreactivity (PSR sort gate)": "high polyreactivity"},
      {"sequence": "QVQLVESGGGLVQAGGSLRLSCAASGSTFYSNVMGWYRQAPGKERELLAAISQSGGRTFYADSVKGRFTISRDNAKITVYLQMNSLKPEDSAVYYSNASSGNRYGPRYDYWGQGTQVTVSS", "polyreactivity (PSR sort gate)": "high polyreactivity"},
      {"sequence": "QVQLVESGGGLVQAGGSLRLSCAASGSTFRVYDMGWYRQAPGKERELVASLSYSVGSTYYADSVKGRFTISRDNAKNTVYLQMNSLKPEDTAVYYCAARPSYQPSSLARYDYWGQGTQVTVSS", "polyreactivity (PSR sort gate)": "low polyreactivity"},
      {"sequence": "QVQLVESGGGIVQAGGSLRLSCAASGSIINGNAMGWDRQAPGKERELVAAITRRGGSTYYADSVKGRFTISRDNAKNTVYLQMNSLKPEDTAVYYCAAEDWLYKRPYKERIVQFYYWGQGTQVTVSS", "polyreactivity (PSR sort gate)": "low polyreactivity"},
      {"sequence": "QVQLVESGGGLVQAGGSLRLSCAASGRTFLYYAMGWDRPAPGKERELVAAITRGGGSTYYADSVKGRFTISRDNAKNTVYLPMNSLKPEDTAVYYCAVEYRVDYYVEYDYWGQGTQVTVSS", "polyreactivity (PSR sort gate)": "high polyreactivity"},
      {"sequence": "QVQLVESGGGLVQAGGSLRLSCAASGSIFLGNALGWYRQAPGKERELVAAISRSGGRTYYADSVKGRFTISRDNAKNTVYLQMNSLKPEDTAVYYCAARSYGIYYAKEFYYWGQGTQVTVSS", "polyreactivity (PSR sort gate)": "high polyreactivity"},
      {"sequence": "QVQLVESGGGLVQAGGSLRLSCAASGFIFTIYAMGWYRQAPGKERELVAAITWNGGRTYYADSVKGRFTISRDNAKNTVYLQMNSLKAEDTAVYYCAARYGRAYDYWGQGTQVTVSS", "polyreactivity (PSR sort gate)": "high polyreactivity"},
      {"sequence": "QVQLVDSGGGLVQAGGSLRLSCPASGRIFSWYAMGWYRQAPGKERELVATISSTGGSTYYADSVKGRFTISRDNAKNTVYLQMNSLKAEHTAVYYCNAVVYGIFLYAWYDYWGQGTQVTVSS", "polyreactivity (PSR sort gate)": "low polyreactivity"},
      {"sequence": "QVQLVESGGGLVQAGGSLRLSCAASGRTFKYYTMGWYRQAPGKERELVAAISGSGSRTYYADSVKGRFTISRDNAKNTVYLQMNSLKPEDTAVYYCAARRRISSGYSGPPWIYGYWGQGTQVTVSS", "polyreactivity (PSR sort gate)": "high polyreactivity"},
      {"sequence": "QVQLVESGGRLDQAGGSLRLSCAASGSILSTYAMGWYRQPPVKERELVASISSNAGSTYYADSVKGRFTISLDNAKNTVSLQMNSLKPEDTAVYYCNKVYGGGTYDYWGQGTQVTVSS", "polyreactivity (PSR sort gate)": "low polyreactivity"},
      {"sequence": "QVQLVESGGGLVQAGGSLRLTCAASGSIFGYAMGWYRQEPGKERELVAAISFSGVSTYYADSVKGRFTISRDNAKNTVYLLMNSLKPEDTAVYDCNAYSDGDEDYWGQGTQVTVSS", "polyreactivity (PSR sort gate)": "low polyreactivity"},
      {"sequence": "QVQLVESGGGLVQAGGSLRLSCAASGRIFAWNDMGWYRQAPGKERELVAAITSGGSTYYADSVKGRFTISRDNAKNTVYLQMNSLKPEDTAVYYCAADRVRRNDKLAYDYWGQGTQVTVSS", "polyreactivity (PSR sort gate)": "low polyreactivity"},
      {"sequence": "QVQLVESGGGLVQAGGSLRLSCAASGSIIGRYAMGWYRQAPGKERELVAAISTGGGRTYYADSVKGRFTISRDSAKNTVYFQLNSLKPEDTAVYYCNAGPYKGWGRMDYWGQGTQVNVSS", "polyreactivity (PSR sort gate)": "high polyreactivity"},
      {"sequence": "QVQLVESGGGLVQAGGSLRLICAASGSIFQFYAMGWYRQAPGKERELVAVITTSGVSTYYADSVKGRFTISRDNAKNTDYLQMNSLKPEDTAVYYCAADDYYLAGDYWGQGTQVTVSS", "polyreactivity (PSR sort gate)": "low polyreactivity"},
      {"sequence": "QVQLVESGGGLVQAGGSLRLSCAASGTFAGNAMGWYRQAPGKERELVAAITTGGRTYYADSVKGRFTISRDNAKNTVYLQMNSLKPEDTAVYYCAADRIRDLEFDYWGQGTKVTVSS", "polyreactivity (PSR sort gate)": "low polyreactivity"},
      {"sequence": "QVQLVESGGGLVQAGGSLRLSCAASGRTFGPNAMGWYRQAPGKERELVAVISGSTGSTYYADSVKGRFTISRDNAKNTVYLEMNSLKPEDTAVYYCAAKSEFYDWYRSYQYEYYYWGQGTQVTVSS", "polyreactivity (PSR sort gate)": "high polyreactivity"},
      {"sequence": "QVQLVESGGGLVKAGGSLRLSSAASGRTFKWYAMGWSRQAPGKERELVAVITGRGGSTYYADSVKGRFTISRDNAKNTVYLQMNSLKPEDTAVYSCAARGYSLVASSLYYYWGQGTQVTVSS", "polyreactivity (PSR sort gate)": "high polyreactivity"},
      {"sequence": "QVQLVESGGGLVQAGGSLRLSCAASGFIFSYYAMGWYRQEPGKERELVAAITSNGGITYYADSVKGRFTISRDNAKNTVYLQMNSLKPEDTAVYYCNAYYTSTSYDYWGQGTQVTVSS", "polyreactivity (PSR sort gate)": "high polyreactivity"},
      {"sequence": "QVQLVESGGGLVQAGGSLRLSCASSGKIFLSYAMGWYRQAPGKERELVAGISASGGRTYYADSVKGRFTISRDNAKNTVYLQMNSLKPEDTAVYYCNADTTPQGNVRDGYWGQGTQVTVSS", "polyreactivity (PSR sort gate)": "high polyreactivity"},
      {"sequence": "QVQLVESGGGLVQAGGSLRLSFSASGRTFPFYAMGWYRQEPGKERDLVAAITVSGGSTYYADSVKGRFTISRDNAKNTVYLQMNSLKPVDTAVYYCNAKRSDQSSKTFNYWGQGTQVTVSS", "polyreactivity (PSR sort gate)": "low polyreactivity"},
      {"sequence": "QVQLVESGGGLVQAGGSIRLSCAASVSIQTRNAMGWYRQAPGKERELVAAISRGGSTTYADSVKGRFTISRDNAKNTVYLQMNSLKPEDTAVYYCAASDYYVLSRRTRMDYWGQGTQVTVAS", "polyreactivity (PSR sort gate)": "high polyreactivity"},
      {"sequence": "QVHLVDSAGGLVQAGGSLRLSCSASGSTFAVYAMGWYRQAPGKERELVAAISSSGDRTYYADSVKGRFTFSRDNAKNTVYLQMNILKPEDTAVYYCAVAIGYVYKTYYYWGQGTQVTVSS", "polyreactivity (PSR sort gate)": "high polyreactivity"},
      {"sequence": "QVQLVESGGGLVQAGGSLRLSGAASGRTFYDYAMGWYRQAPGKERELVAAISWIDGSTYYADSVKGRFTISRDNAKNTVYLLMNSLKPEDTAVYYCAARRLVYYRKVKELDYWGQGTQVTVSS", "polyreactivity (PSR sort gate)": "high polyreactivity"},
      {"sequence": "QVQLVESGGGLVQAGGSLRLSCAASGSTSPGYAMGWYRQAPGKERELVAAITFRGTRTYYSDSVKGRFTISRDNAKNTVYLQMNSQKPDDTAVYYCNVVGYGPNRGRVDYCGQGTQVTVSS", "polyreactivity (PSR sort gate)": "high polyreactivity"},
      {"sequence": "QVQLVESGGGLVQAGGSRSLSCAASGSTFYSYAMGWYRQAPGKERELVAAINWDGVSTYYADSVKGRFTISRDNAKNTVYLQMNSLKPEDTAVYYCAAELFSGYRISGTYYYWGQGTQVTVSS", "polyreactivity (PSR sort gate)": "low polyreactivity"},
      {"sequence": "QDQHVESGGGLVQAGGSLRLSCAASGGTFVPYAMGWYRQAPGKERELVARISKRGGTTYYADSVKGRFTISRDIAKNTVYLQMNSLKPEDTAVYYCAAGLPARGYYWGQGTQVTVSS", "polyreactivity (PSR sort gate)": "high polyreactivity"},
      {"sequence": "QVQLVESGGGLVQAGGSLRLSCAASGSTFVYNAMGSYRQAPGKEREFVAAISGSGGSTYYADSVKGRFTISRDNAKNTVYLQMNSLKPEDTAVYYCATAGRYGLYRTYPYRSKYDYWGQGTQVTVSS", "polyreactivity (PSR sort gate)": "high polyreactivity"},
      {"sequence": "QVQLVESGGGLVQAGGSLRLSCAASGRIFVPYAMGWSRQAPGKERELVAAISWRGGSTNYADSVKGRFTISRDNAKNTVYLQMNSLKPEDTAVYYCAAVPVRYRYSYGYYYWGQGTQVTVSS", "polyreactivity (PSR sort gate)": "high polyreactivity"},
      {"sequence": "QVQLVESGGGLVQAGGSLSLSCAASGIIFIYYGMGWYRQAPGKERELVAAISRSGGRTYYADSVKGRFTISRDNAKNTVYLQMNSLKPEDTAVYYCATTYTPTGFDYWGQGTQVTVSS", "polyreactivity (PSR sort gate)": "high polyreactivity"},
      {"sequence": "QVQLVESGGGLVQAGGSLRLSCAASGFTFAKYAMGWYRQAPGKERELVAAISSNGGTTYYADSVKGRFTISRDNAKNTVYLQMNSLKPEDTAVYYCAVRSRVYPSRVKYDYWGQGTQVTVSS", "polyreactivity (PSR sort gate)": "high polyreactivity"},
      {"sequence": "QVQLVESGGGLVQAGGSLRLSCAASGITFTVYAMGWYRQAPGKERELVAAISQSGGSTYYADSVKGRFTISRDNAKNTVYLQMNSLNPEYTAVYDCNSDTVWGPYRSYIPFDYWGQGTQVNVSS", "polyreactivity (PSR sort gate)": "low polyreactivity"},
      {"sequence": "QVQLVESGGGLVQAGGSLRLSCASSGYTFVYYAMGWYRQAPGKERELVAAINVSDGNTFYADSVKGRFTISRDNAKNTVYLQMNSLIPEDTAVYYCAADYYPYPPTSEYGYWGQGTQVTVSS", "polyreactivity (PSR sort gate)": "low polyreactivity"},
      {"sequence": "QVQLVESGGGLVQAGGSLRLSLLPPDSPSTTMLWDGIDRRLGKKGSWLPVFLPSGGTTYADSVKGRFTISRDNAKNTVYLQMNSLKPEDTAVYYCAASYYRTRWSWMYYWGQGTQVTLSS", "polyreactivity (PSR sort gate)": "low polyreactivity"},
      {"sequence": "QVQLVESGGGLVQAGGSLRLSCAASGSTFWAYAMGWYRQAPGKERELVAAITTGGGRTFYADSVKGRFTISRDNAKNTVYLQMNSLKPEDTAVYYCAAVSQSYRMYYWGEGTQVTVSS", "polyreactivity (PSR sort gate)": "low polyreactivity"},
      {"sequence": "QVQLVESGGGLVQAGGSLRLSCAASGSNFYGYAMGWYRQAPGKERELVAAISSGGRTKYADSVKGRFTISRDNAKNTVYLQMNSLKPEDTAVYYCNVSYLVDRWKFGWSMDYWGQGNQVTVSS", "polyreactivity (PSR sort gate)": "low polyreactivity"},
      {"sequence": "QVQLVESGGGLVQAGGSLRLSCAASGFIFSGNAMGWYILAPGKERELVAGIRSLGGTTSYADSVKGRFTISRDNAKNTVYLQMNSMKPEDTAVYYCAAGYGAEFDYWGQGTQVTVSS", "polyreactivity (PSR sort gate)": "low polyreactivity"},
      {"sequence": "QVQLVESGGGLVQAGGSLRLSCAASGSIFAVNAMGWYRQAPGKERELVASITSGGSTNYADSVKGRFTISRDNAKNTVYLQMNSLKPEDTAVYYCNADRVRAVSRYDYWGQGTQLTVSS", "polyreactivity (PSR sort gate)": "low polyreactivity"},
      {"sequence": "QVQLVESGAGIVQAGGSLRLSCAASVSTFQSYAMGLYRPAPGKERELFAAISFSGGSTYYADSVKGRFTISRDNAKNTVYLQMNSLKPEDTAVYYCAKRGWVYFHGYDYWGQGTQVTVSS", "polyreactivity (PSR sort gate)": "low polyreactivity"},
      {"sequence": "QVQLVESGGGLVQAGCSLRLSCSASGSIFYSYAMGWYRQAPGKERELVAAITSVVSTNYADSVKGRFTISRDYAKNTVYLQMNRLKTEDTAVYYCAAGYLRLYYVCLDDSYGYDYWGQGTQVTVSS", "polyreactivity (PSR sort gate)": "low polyreactivity"}
    ]}
  ]
}
